From publication doi:10.1101/2024.03.31.587457, “The TTLL10 polyglycylase is stimulated by tubulin glutamylation and inhibited by polyglycylation” (bioRxiv, 2025)

T1: TTLL8 (Homo sapiens, UniProt A6PVC2)
T1 construct: residues 39-585; N-terminal GST tag cut with 3C protease; Sf9 baculovirus
T1 sequence (A6PVC2 39-585): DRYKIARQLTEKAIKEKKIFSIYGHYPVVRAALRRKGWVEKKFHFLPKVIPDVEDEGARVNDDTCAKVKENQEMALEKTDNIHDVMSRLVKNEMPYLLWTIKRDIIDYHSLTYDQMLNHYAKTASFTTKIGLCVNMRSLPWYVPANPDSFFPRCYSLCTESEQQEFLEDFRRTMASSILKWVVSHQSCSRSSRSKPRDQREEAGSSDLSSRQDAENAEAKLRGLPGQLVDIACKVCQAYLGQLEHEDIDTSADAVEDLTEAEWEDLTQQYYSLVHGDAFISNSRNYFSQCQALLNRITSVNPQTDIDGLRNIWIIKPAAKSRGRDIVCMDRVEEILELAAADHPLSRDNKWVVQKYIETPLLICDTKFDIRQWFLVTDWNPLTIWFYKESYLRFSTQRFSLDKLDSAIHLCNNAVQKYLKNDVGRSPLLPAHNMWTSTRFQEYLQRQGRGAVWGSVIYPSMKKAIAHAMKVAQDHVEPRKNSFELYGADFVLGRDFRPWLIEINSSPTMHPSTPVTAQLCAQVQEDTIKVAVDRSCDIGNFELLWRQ

T2: TTLL10 (Xenopus tropicalis, UniProt A0A8J0T4S7)
T2 construct: residues 105-570; N-terminal GST tag cut with 3C protease; Sf9 baculovirus; untagged for mass spectrometry (C-terminal SNAP fusion only for microscopy)
T2 sequence (A0A8J0T4S7 105-570): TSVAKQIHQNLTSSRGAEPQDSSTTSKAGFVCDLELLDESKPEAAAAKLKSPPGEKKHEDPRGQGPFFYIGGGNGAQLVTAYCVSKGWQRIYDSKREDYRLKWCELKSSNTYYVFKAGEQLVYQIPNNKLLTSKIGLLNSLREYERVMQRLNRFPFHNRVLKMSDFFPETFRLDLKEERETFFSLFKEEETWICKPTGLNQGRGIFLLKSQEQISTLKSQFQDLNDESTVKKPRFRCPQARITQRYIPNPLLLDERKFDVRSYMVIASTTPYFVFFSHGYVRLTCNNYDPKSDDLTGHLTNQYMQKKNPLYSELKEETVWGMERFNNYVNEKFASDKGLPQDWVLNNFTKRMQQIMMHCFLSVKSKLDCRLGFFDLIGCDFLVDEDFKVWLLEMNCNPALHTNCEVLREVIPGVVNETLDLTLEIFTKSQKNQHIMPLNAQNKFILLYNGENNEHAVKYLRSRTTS

B1: Alexa647-labeled TTLL10-SNAP (enzyme)
chain: TSVAKQIHQNLTSSRGAEPQDSSTTSKAGFVCDLELLDESKPEAAAAKLKSPPGEKKHEDPRGQGPFFYIGGGNGAQLVTAYCVSKGWQRIYDSKREDYRLKWCELKSSNTYYVFKAGEQLVYQIPNNKLLTSKIGLLNSLREYERVMQRLNRFPFHNRVLKMSDFFPETFRLDLKEERETFFSLFKEEETWICKPTGLNQGRGIFLLKSQEQISTLKSQFQDLNDESTVKKPRFRCPQARITQRYIPNPLLLDERKFDVRSYMVIASTTPYFVFFSHGYVRLTCNNYDPKSDDLTGHLTNQYMQKKNPLYSELKEETVWGMERFNNYVNEKFASDKGLPQDWVLNNFTKRMQQIMMHCFLSVKSKLDCRLGFFDLIGCDFLVDEDFKVWLLEMNCNPALHTNCEVLREVIPGVVNETLDLTLEIFTKSQKNQHIMPLNAQNKFILLYNGENNEHAVKYLRSRTTS
modifications: SNAP-Surface Alexa Fluor 647 dye conjugated to the SNAP tag

Experiments:
TTLL8 = target: T1, TTLL8; test: LC-MS and MS/MS of glycine added to tubulin tails; format: biochemical; settings: labelled compound (13C glycine); co-substrate unmodified human microtubules (taxol-stabilised); ATP-dependent; room temperature, 20 min
TTLL10 = target: T2, TTLL10; test: LC-MS and MS/MS of glycine added to tubulin tails; format: biochemical; settings: labelled compound (13C glycine); co-substrate human microtubules monoglycylated by TTLL8; ATP-dependent; room temperature, 20 min
[1] = target: polyglycylated/polyglutamylated microtubules (<nG>α ~ 0.4, <nG>β ~ 1.9, glutamylated by TTLL6) (human) (UniProt P68363); test: TIRF microscopy microtubule binding assay; 500 nM TTLL10-SNAP(647) perfused over biotinylated taxol-stabilised microtubules immobilised on neutravidin; binding buffer 60mM KCl, 10mM NaCl, 40mM PIPES pH 6.8, 2mM Tris pH 8.0, 1.5mM MgCl2, 1mM ATP; peak line-scan intensities normalised to microtubule length and to unmodified microtubules in the same chamber
[2] = target: monoglycylated microtubules (<nG>α ~ 1.1, <nG>β ~ 2.5) (human) (UniProt P68363); test: as above
[3] = target: monoglycylated microtubules (<nG>α ~ 0.8, <nG>β ~ 1.2) (human) (UniProt P68363); test: as above
[4] = target: monoglycylated/polyglutamylated microtubules (<nG>α ~ 0.1, <nG>β ~ 0.8; <nE>α ~ 18, <nE>β ~ 4) (human) (UniProt P68363); test: as above
[5] = target: monoglycylated microtubules (α + 1.7G, β + 2.0G) (human) (UniProt P68363); test: TIRF microscopy microtubule binding assay; binding curve of TTLL10-SNAP(Alexa647) on microtubules immobilised in neutravidin-coated flow chambers; apparent Kd

Molecule | LC-MS and MS/MS of glycine added to tubulin tails (TTLL8) | LC-MS and MS/MS of glycine added to tubulin tails (TTLL10) | fold binding against the same polyglycylated microtubules without glutamylation [1] [fold] | percent increase in recruitment on addition of more monoglycines (against microtubules with <nG>α ~ 0.8, <nG>β ~ 1.2) [2] [%] | fold recruitment against unmodified microtubules [3] [fold] | fold recruitment against the same monoglycylated microtubules without glutamylation [4] [fold] | Kd [5] [nM]
NCC(=O)O [glycine] | TTLL8 adds glycines to unmodified microtubules on both α- and β-tubulin | TTLL10 can add glycines to both α- and β-tubulin as long as they were previously monoglycylated |  |  |  |  | 
B1 |  |  | 3.2 | 17 | > 6 | 1.8 | 600
